The values below come from patent publication US20090214558A1 (Pfizer, published 2009).

Positions count from the first letter of the chain named.

T1: MAdCAM (analyte of the BIAcore experiment) (UniProt Q13477 19-317)
T1 construct: The antibodies are called anti-hMAdCAM; also called Mucosal addressin cell adhesion molecule
T1 sequence (looked up): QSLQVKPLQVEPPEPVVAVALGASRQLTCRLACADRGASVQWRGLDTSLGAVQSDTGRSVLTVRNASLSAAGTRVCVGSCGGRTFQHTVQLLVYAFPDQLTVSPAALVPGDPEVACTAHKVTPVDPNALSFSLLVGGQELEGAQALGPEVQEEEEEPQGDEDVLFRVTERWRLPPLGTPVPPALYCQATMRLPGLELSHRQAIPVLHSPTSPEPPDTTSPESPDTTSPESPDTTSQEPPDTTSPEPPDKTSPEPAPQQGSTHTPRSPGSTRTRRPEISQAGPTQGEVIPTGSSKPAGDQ

B1: 7.16.6_L (antibody, V domains shown)
VH: QVQLVQSGAEVKKPGASVKVSCKASGYTFTSYGINWVRQAPGQGLEWMGWISVYSGNTNYAQKLQGRVTMTADTSTSTAYMDLRSLRSDDTAVYYCAREGSSSSGDYYYGMDVWGQGTTVTVSS
VL: DIVMTQTPLSLSVTPGQPASISCKSSQSLLHTDGTTYLYWYLQKPGQPPQLLIYEVSNRFSGVPDRFSGSGSGTDFTLKISRVEAEDVGIYYCMQNIQLPWTFGQGTKVEIKR
notes: The light chain is the parent 7.16.6 kappa chain, rebuilt as for m1; also called 7.16.6_L variant
B2: 7.16.6_V (antibody, human IgG2, kappa, V domains shown)
VH: B1 VH with L64V
VL: B1 VL with I90V
notes: Recombinant, from transiently transfected FreeStyle HEK293 cells; also called 7.16.6_V adduct
B3: 7.16.6_LVS (antibody, human IgG2, kappa, V domains shown)
VH: B1 VH
VL: B1 VL with I90V, N96S
notes: Recombinant, from transiently transfected FreeStyle HEK293 cells
B4: 7.16.6_S (antibody, human IgG2, kappa, V domains shown)
VH: B1 VH with L64V
VL: B1 VL with N96S
notes: Recombinant, from transiently transfected FreeStyle HEK293 cells; also called 7.16.6-5; 7.16.6_5
B5: 7.16.6_VS (antibody, human IgG2, kappa, V domains shown)
VH: B1 VH with L64V
VL: B1 VL with I90V, N96S
notes: Recombinant, from transiently transfected FreeStyle HEK293 cells; also called 7.16.6_VS adduct
B6: 6.34.2 (antibody, V domains shown)
VH: QVQLVESGGGVVQPGRSLRLSCAASGFTFSSYGMHWVRQAPGKGLEWVAVISNDGNNKYYADSVKGRFTISRDNSKNTLYLQMNSLSAEDTAVYYCARDSTAITYYYYGMDVWGQGTTVTVSS
VL: DIQMTQSPSSLSASVGDRVTITCRASQNISSYLNWFQQKPGKAPKLLIYAASGLKRGVPSRFSGSGSGTDFTLTIRTLQPDDFATYSCHQSYSLPFTFGPGTKVDIKR
B7: 6.34.2-mod_SSQ (antibody, human IgG2, kappa, V domains shown)
VH: B6 VH with S87R
VL: B6 VL with N28S, F36Y, G53S, K55S, R56Q, R76S, T77S, D81E, S87Y
notes: Purified recombinant antibody
B8: 6.67.1 (antibody, V domains shown)
VH: QVQLQESGPGLVKPSETLSLTCTVSGDSISSNYWSWIRQPAGKGLEWIGRIYTSGGTNSNPSLRGRVTILADTSKNQFSLKLSSVTAADTAVYYCARDRITIIRGLIPSFFDYWGQGTLVTVSS
VL: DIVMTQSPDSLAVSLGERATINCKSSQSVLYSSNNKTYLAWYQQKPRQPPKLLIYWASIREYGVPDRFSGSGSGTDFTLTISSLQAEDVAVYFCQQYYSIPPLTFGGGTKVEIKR
B9: 6.67.1-mod_Y (antibody, V domains shown)
VH: B8 VH with I69M, L70S, A71V
VL: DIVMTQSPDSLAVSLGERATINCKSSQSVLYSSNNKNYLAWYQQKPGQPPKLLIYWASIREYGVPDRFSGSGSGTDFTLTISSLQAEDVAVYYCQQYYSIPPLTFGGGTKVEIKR
B10: 6.22.2 (antibody, V domains shown)
VH: QVQLVESGGGVVQPGRSLRLSCAASGHTFSSDGMHWVRQAPGKGLEWVAIIWYDGSNKYYADSVKGRFTISRDNSKNTLYLQMNSLRAEDTAVYYCARDPGYYYGMDVWGQGTTVTVSS
VL: EIVLTQSPDFQSVTPKEKVTITCRASQRIGSSLHWYQQKPDQSPKLLIKYASQSFSGVPSRFSGSGSGTNFTLTINGLEAEDAATYYCHQSGRLPLTFGGGTKVEIKR
B11: 6.22.2-mod_V (antibody, human IgG2, kappa, V domains shown)
VH: B10 VH with H27F, I50V
VL: B10 VL with N70D, G77S
notes: Purified recombinant antibody
B12: 6.77.1-mod_ΔS (antibody, human IgG2, kappa, V domains shown)
VH: EVQLVESGGGLVKPGGSLRLSCAASGFTFSSYSMNWVRQAPGKGLEWVSSISSSSSYIYYADSVKGRFTISRDNAKNSLYLQMNSLRAEDTAVYYCARDGYSSGWYYYYYGMDVWGQGTTVTVSS
VL: DIVMTQTPLSLSVTPGQPASISCKSSQSLLLSDGKTYLNWYLQKPGQPPQLLIYEVSNRFSGVPDRFSGSGSGTDFTLKISRVEAEDVGVYSCMQSIQLMSSFGQGTKLEIKR
notes: Purified recombinant antibody; also called 6.77.1-mod_ΔAS
B13: 9.8.2-mod_ΔRGAYH,D (antibody, human IgG4, kappa, V domains shown)
VH: QVQLVESGGGVVQPGRSLRLSCAASGFTFSSYGMHWVRQAPGKGLEWVAVIWYDGSNEYYADSVKGRFTISRDNSKNTLYLQMNSLRAEDTAVYYCAFDYWGQGTLVTVSS
VL: DIQMTQSPSSLSASVGDRVTITCQASQDISNYLNWYQQKPGKAPKLLIYDASNLETGVPSRFSGSGSGTDFTFTISSLQPEDIATYSCQHSDNLITFGQGTRLEIKR
notes: Purified recombinant antibody; The heavy-chain constant region as printed is IgG4-like; also called 9.8.2_ΔRGAYH,D

The target in the first test is T2, MAdCAM-IgG1 Fc fusion protein.
T2 construct: Made in CHO-DHFR cells and coated on plates at 4.5 µg/mL
Briefly: inhibition of adhesion of calcein-loaded JY cells to plate-coated MAdCAM-IgG1 Fc fusion (fluorescence). The protocol: The cells were washed twice with RPMI 1640 media (Gibco) containing 2 mM L-glutamine (Gibco) by centrifugation (240 g), resuspending the final cell pellet at 2×10⁶ cells/mL in RPMI 1640 for Calcein AM loading. Calcein AM (Molecular Probes #C-3099) was added to the cells as a 1:200 dilution in DMSO (ca. final concentration 5 μM) and the cells protected from light during the course of the incubation (37° C. for 30 min). During this cell incubation step the antibodies to be tested, were diluted as follows: for single dose testing, the antibodies were made up to 3 μg/mL (1 μg/mL final) in 0.1 mg/mL BSA (Sigma#A3059) in PBS; for full IC₅₀ curves, the antibodies were diluted in 0.1 mg/mL BSA/PBS, with 3 μg/mL (1 μg/mL final) being the top concentration, then doubling dilutions (1:2 ratio) across the plate. The final well of the row was used for determining total binding, so 0.1 mg/ml BSA in PBS was used.
After blocking, the plate contents were flicked out and 50 μL of antibodies/controls were added to each well and the plate incubated at 37° C. for 20 min. During this time, Calcein-loaded JY cells were washed once with RPMI 1640 media containing 10% fetal bovine serum and once with 1 mg/mL BSA/PBS by centrifugation, resuspending the final cell pellet to 1×10⁶/mL in 1 mg/mL BSA/PBS. 100 μL of cells were added to each well of the U bottomed plate, the plate sealed, briefly centrifuged (1000 rpm for 2 min) and the plate then incubated at 37° C. for 45 min. At the end of this time, the plates were washed with a Skatron plate washer and fluorescence measured using a Wallac Victor² 1420 Multilabel Reader (excitation λ485 nm, emission λ535 nm count from top, 8 mm from bottom of plate, for 0.1 sec with normal emission aperture). For each antibody concentration, percent adhesion was expressed as a percentage of maximal fluorescence response in the absence of any antibody minus fluorescence associated with non-specific binding. The IC₅₀ value is defined as the anti-MAdCAM antibody concentration at which the adhesion response is decreased to 50% of the response in the absence of anti-MAdCAM antibody. Antibodies that were able to inhibit the binding of JY cells to MAdCAM-IgG₁ Fc fusion with an IC₅₀ value <0.1 μg/mL, were considered to have potent antagonist activity and were progressed to the MAdCAM-CHO adhesion assay.
Target sequence in this assay (chain, as listed by the source limits assumed): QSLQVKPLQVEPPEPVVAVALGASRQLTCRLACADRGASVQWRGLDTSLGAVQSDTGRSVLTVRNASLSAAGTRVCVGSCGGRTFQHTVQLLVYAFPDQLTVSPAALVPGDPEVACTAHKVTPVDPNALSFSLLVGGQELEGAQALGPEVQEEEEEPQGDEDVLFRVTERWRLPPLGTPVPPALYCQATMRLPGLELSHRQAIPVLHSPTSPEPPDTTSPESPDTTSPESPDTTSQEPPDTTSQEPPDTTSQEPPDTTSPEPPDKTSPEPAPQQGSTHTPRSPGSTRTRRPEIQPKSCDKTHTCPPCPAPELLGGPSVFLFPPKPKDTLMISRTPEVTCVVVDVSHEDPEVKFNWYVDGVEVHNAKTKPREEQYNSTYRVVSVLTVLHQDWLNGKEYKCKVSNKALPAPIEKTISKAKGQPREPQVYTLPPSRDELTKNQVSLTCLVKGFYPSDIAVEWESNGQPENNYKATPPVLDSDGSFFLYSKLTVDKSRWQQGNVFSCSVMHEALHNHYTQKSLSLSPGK
Broadly, the IC50 is the concentration needed to halve the response being measured. Regarding B1, the IC50 is 0.0356 µg/mL.

On to B2, for which the concentration for half-maximal inhibition (IC50) was 0.0412 µg/mL.

With B3, the half-maximal inhibitory concentration (IC50) is 0.0458 µg/mL.

For the molecule B4, the IC50 was 0.0342 µg/mL.

As for B5, the half-inhibitory concentration (IC50) was 0.0582 µg/mL.

A further test shares this target. The experiment in a line: MAdCAM-IgG1 Fc fusion: JY cell binding assay (inhibition of JY cell adhesion).
As to B6, the IC50 is 0.013 µg/mL.

The molecule B7 registered an IC50 of 0.086 µg/mL.

Take B8: the IC50 amounted to 0.013 µg/mL.

B9 came in with a half-maximal inhibitory concentration (IC50) of 0.063 µg/mL.

The molecule B10 registered a 50% inhibitory concentration (IC50) of 0.018 µg/mL.

Molecule B11 showed an IC50 of 0.076 µg/mL.

B12: the IC50 is 0.0485 µg/mL.

B13 gave an IC50 of 0.072 µg/mL.

The next test addresses T1, MAdCAM (analyte of the BIAcore …). The experiment in a line: BIAcore (SPR); antibody immobilised, MAdCAM injected; footnote: below the instrument's lower limit of 5 × 10^-6 s^-1. In general terms: In SPR one partner is held on a chip, and binding of the other changes the refractive index at the surface.
As a reminder, the koff is the rate constant with which the complex falls apart. The low end stands for a long-lived complex, the high end for a short-lived complex. The molecule B4 gave a dissociation rate constant (koff) of 4.27e-06 s⁻¹.

A further test shares this target. The experiment in a line: BIAcore (SPR); antibody immobilised, MAdCAM injected.
As a reminder, the Kd is the concentration at which binding is half-saturated. The low end stands for tighter binding, the high end for weaker binding. As a reminder, the kon is the second-order rate constant of association. High values mean faster complex formation, low ones slower complex formation. Turning to B1, the Kd worked out at 0.0795 nM, the dissociation rate constant (koff) came out at 1.21e-05 s⁻¹ and the on-rate constant (kon) worked out at 152000 M⁻¹ s⁻¹.

In turn, B2 came in with an equilibrium dissociation constant (Kd) of 0.162 nM, a koff of 2.49e-05 s⁻¹ and an on-rate (kon) of 153000 M⁻¹ s⁻¹.

For the molecule B3, the equilibrium dissociation constant (Kd) is 0.119 nM, the koff came out at 2.31e-05 s⁻¹ and the kon worked out at 194000 M⁻¹ s⁻¹.

B4 returned an equilibrium dissociation constant (Kd) of 0.0232 nM and a kon of 183000 M⁻¹ s⁻¹.

For the molecule B5, the Kd is 0.0908 nM, the koff is 2.18e-05 s⁻¹ and the association rate constant (kon) came to 240000 M⁻¹ s⁻¹.

For another test the target is unchanged. Briefly: BIAcore (SPR); KD restated from the instrument's off-rate limit; the footnote says 7.16.6_V, but the ka used and the asterisk belong to 7.16.6_S; KD bound restated from the BIAcore off-rate limit (5 × 10^-6 s^-1), not the fitted 23.2 pM.
The molecule B4 returned a Kd of less than 0.0273 nM.
